# Source: US20210038737A1 (OHIO STATE INNOVATION FOUNDATION, published 2021)
# Primed or numbered codes have the meaning given here. [ ]: non-standard residue; d: D form. 1Nal = N[C@@H](Cc1cccc2ccccc12)C(=O)O; 2Nal = N[C@@H](Cc1ccc2ccccc2c1)C(=O)O; FITC′ = fluorescein isothiocyanate; Cha = N[C@@H](CC1CCCCC1)C(=O)O; Tle = CC(C)(C)[C@H](N)C(=O)O
# B1: peptide 6: FITC-Cys-Arg-Arg-Arg-Phe-Trp-Gln-Cys-Thr-Arg-Tle-OH (peptide)
# peptide: {FITC′}-CRRRFWQCTR[Tle]-OH
# modifications: not fully specified; printed as FITC-Cys-Arg-Arg-Arg-Phe-Trp-Gln-Cys-Thr-Arg-Tle-OH; cysteine pairing not given here
# notes: Synthetic labeled peptide; assayed with 2 mM TCEP (reduced, linear); also called Compd 6; Compound 6
# B2: peptide 11: Ac-Arg-Arg-Phe-Trp-(D-Pro)-Cys-Thr-Arg-Tle-OH (peptide)
# peptide: Ac-RRFW[dP]CTR[Tle]-OH
# SMILES: CC(=O)N[C@@H](CCCNC(=N)N)C(=O)N[C@@H](CCCNC(=N)N)C(=O)N[C@@H](Cc1ccccc1)C(=O)N[C@@H](Cc1c[nH]c2ccccc12)C(=O)N1CCC[C@@H]1C(=O)N[C@@H](CS)C(=O)N[C@H](C(=O)N[C@@H](CCCNC(=N)N)C(=O)N[C@H](C(=O)O)C(C)(C)C)[C@@H](C)O
# notes: Synthetic peptide; also called Compd 11; Compound 11
# B3: peptide 12: Ac-Arg-Arg-Phe-Trp-(D-Cys)-Cys-Thr-Arg-Tle-OH (peptide)
# peptide: Ac-RRFW[dC]CTR[Tle]-OH
# modifications: cysteine pairing not given here
# notes: Synthetic peptide; also called Compd 12; Compound 12
# B4: peptide 2: Ac-Arg-Arg-Phe-Trp-Gln-Cys-Thr-Arg-Ile-OH (peptide)
# peptide: Ac-RRFWQCTRI-OH
# notes: Synthetic peptide; also called Compd 2; Compound 2
# B5: peptide 3: Ac-Arg-Arg-Phe-Trp-Gln-Cys-Thr-Arg-Cha-OH (peptide)
# peptide: Ac-RRFWQCTR[Cha]-OH
# SMILES: CC(=O)N[C@@H](CCCNC(=N)N)C(=O)N[C@@H](CCCNC(=N)N)C(=O)N[C@@H](Cc1ccccc1)C(=O)N[C@@H](Cc1c[nH]c2ccccc12)C(=O)N[C@@H](CCC(N)=O)C(=O)N[C@@H](CS)C(=O)N[C@H](C(=O)N[C@@H](CCCNC(=N)N)C(=O)N[C@@H](CC1CCCCC1)C(=O)O)[C@@H](C)O
# notes: Synthetic peptide; also called Compd 3; Compound 3
# B6: peptide 13: Ac-Arg-Arg-Phe-Trp-Cys-Cys-Thr-Arg-Tle-OH (peptide)
# peptide: Ac-RRFWCCTR[Tle]-OH
# modifications: cysteine pairing not given here
# notes: Synthetic peptide; also called Compd 13; Compound 13
# B7: peptide 7: Ac-Arg-Arg-Phe-Trp-Gln-Cys-Thr-Leu-Tle-OH (peptide)
# peptide: Ac-RRFWQCTL[Tle]-OH
# modifications: not fully specified; printed as Ac-Arg-Arg-Phe-Trp-Gln-Cys-Thr-Leu-Tle-OH
# notes: Synthetic peptide; also called Compd 7; Compound 7
# B8: peptide 14: Ac-Cys-Arg-Arg-Arg-Phe-(1-Nal)-Gln-Cys-Thr-Arg-Tle-OH (peptide)
# peptide: Ac-CRRRF[1Nal]QCTR[Tle]-OH
# modifications: cysteine pairing not given here
# notes: Synthetic peptide; assayed with DTT (reduced, linear); also called Compd 14; Compound 14
# B9: peptide 15: Ac-Cys-Arg-Arg-Arg-Phe-(2-Nal)-Gln-Cys-Thr-Arg-Tle-OH (peptide)
# peptide: Ac-CRRRF[2Nal]QCTR[Tle]-OH
# modifications: cysteine pairing not given here
# notes: Synthetic peptide; assayed with DTT (reduced, linear); also called Compd 15; Compound 15
# Target: T1, CAL PDZ domain (CALP5-His) (UniProt Q9HD26 288-371)
# Experiment: direct FP, condition C: 50 nM labeled peptide, CALP5-His titrated
# Experimental: Condition C (denoted with superscript ^c): 50 nM labeled peptide was incubated with 2 mM TCEP in PBS at pH 7.4 containing 0.01% Triton-X100. CALP5-His was serially diluted in PBS containing 0.01% Triton-X100 to which was then added the peptide and TCEP solution. This solution was mixed for 1 h at RT then 20 uL was pipetted into 384-well microplates and fluorescence polarization was measured using a TECAN Infinite M1000 plate reader. KD values were calculated using KaleidaGraph v. 3.6 using the equation: […]
row,Kd,Binder
1,0.996 µM,B1

# Target: T1, CAL PDZ domain (CALP5-His)
# Experiment: FP competition, condition A: probe peptide 26 (50 nM) with 100 nM CALP5-His; competitor titrated
row,IC50,Binder
1,7.39 µM,B2
2,10.3 µM,B3
3,3.69 µM,B4
4,7.88 µM,B5
5,8.01 µM,B6
6,2.02 µM,B7

# Target: T1, CAL PDZ domain (CALP5-His)
# Experiment: FP competition, condition B: probe FAM-…-OH (100 nM) with 500 nM CALP5-His; competitor titrated
# Experimental: Serial dilutions of each competitor peptide were prepared in PBS and the incubation solution was added to each. The combined solutions were gently mixed for 1 h at RT after which 20 uL sample was pipetted into 384-well black-on-black microplates and fluorescence polarization was measured using a TECAN Infinite M1000 plate reader. Data was processed to determine IC₅₀ using GraphPad PRISM ver. 6.0.
row,IC50,Binder
1,1.77 µM,B8
2,1.49 µM,B9
